The values below come from publication PMC6430473.

The series deals with T1, Clp (Xanthomonas campestris pv. campestris 8004) (UniProt Q4UZF6).
T1 sequence: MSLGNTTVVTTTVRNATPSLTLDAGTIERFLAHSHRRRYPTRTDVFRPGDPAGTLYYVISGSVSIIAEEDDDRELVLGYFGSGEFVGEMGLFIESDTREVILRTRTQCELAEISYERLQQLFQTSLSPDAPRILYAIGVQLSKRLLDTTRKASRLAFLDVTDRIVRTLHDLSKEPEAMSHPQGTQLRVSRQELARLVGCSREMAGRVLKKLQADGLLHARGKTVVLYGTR
The experiment in a line: EMSA. A general note: A gel shift assay detects complexes by their altered migration in electrophoresis.

Regarding “AGCTGAAGGCCGGCCCGGCGGCCAGTGCGAGGGCGGTGGCCAAAGCGAGCGTGCTTGCGGTCCTGAATATGGACATGGTGATCTCCCTAGAGAACCGGGCTCGACACCCGAGCGCGGTAAGGCGGGCATCTTGGTCTGTGCGCGCGTCGCGTGGTG (double strand) [P-36/+120 (text: P-36/+100)]”, the binding result is “no binding”.

“CATGGTGATCTCCCTAGAGAACCGGGCTCGACACCCGAGCGCGGTAAGGCGGGCATCTTGGTCTGTGCGCGCGTCGCGTGGTGTGATCGTCCCCACAGAAAAC (double strand) [P-56/+47]”: the binding result is “binds”.
